Substitutions are numbered along the chain they refer to. In names and notes the source's numbering stands.
B1: full-length human STAT5B (M1-S787) (natural protein, UniProt P51692 1-787, looked up)
chain: MAVWIQAQQLQGEALHQMQALYGQHFPIEVRHYLSQWIESQAWDSVDLDNPQENIKATQLLEGLVQELQKKAEHQVGEDGFLLKIKLGHYATQLQNTYDRCPMELVRCIRHILYNEQRLVREANNGSSPAGSLADAMSQKHLQINQTFEELRLVTQDTENELKKLQQTQEYFIIQYQESLRIQAQFGPLAQLSPQERLSRETALQQKQVSLEAWLQREAQTLQQYRVELAEKHQKTLQLLRKQQTIILDDELIQWKRRQQLAGNGGPPEGSLDVLQSWCEKLAEIIWQNRQQIRRAEHLCQQLPIPGPVEEMLAEVNATITDIISALVTSTFIIEKQPPQVLKTQTKFAATVRLLVGGKLNVHMNPPQVKATIISEQQAKSLLKNENTRNDYSGEILNNCCVMEYHQATGTLSAHFRNMSLKRIKRSDRRGAESVTEEKFTILFESQFSVGGNELVFQVKTLSLPVVVIVHGSQDNNATATVLWDNAFAEPGRVPFAVPDKVLWPQLCEALNMKFKAEVQSNRGLTKENLVFLAQKLFNNSSSHLEDYSGLSVSWSQFNRENLPGRNYTFWQWFDGVMEVLKKHLKPHWNDGAILGFVNKQQAHDLLINKPDGTFLLRFSDSEIGGITIAWKFDSQERMFWNLMPFTTRDFSIRSLADRLGDLNYLIYVFPDRPKDEVYSKYYTPVPCESATAKAVDGYVKPQIKQVVPEFVNASADAGGGSATYMDQAPSPAVCPQAHYNMYPQNPDSVLDTDGDFDLEDTMDVARRVEELLGRPMDSQWIPHAQS
notes: human STAT5B, full length M1-S787, gene NCBI NM_012448.3, unphosphorylated; also called wild-type STAT5B; wild-type; source: E. coli BL21 (DE3) RILP, purified (Ni-NTA, Ulp1 cleavage, SEC); not shown: His, N-terminal, cleaved; SUMO, N-terminal, cleaved
B2: human STAT5B core fragment (A136-Q703) (domain or fragment, UniProt P51692 136-703, looked up)
chain: AMSQKHLQINQTFEELRLVTQDTENELKKLQQTQEYFIIQYQESLRIQAQFGPLAQLSPQERLSRETALQQKQVSLEAWLQREAQTLQQYRVELAEKHQKTLQLLRKQQTIILDDELIQWKRRQQLAGNGGPPEGSLDVLQSWCEKLAEIIWQNRQQIRRAEHLCQQLPIPGPVEEMLAEVNATITDIISALVTSTFIIEKQPPQVLKTQTKFAATVRLLVGGKLNVHMNPPQVKATIISEQQAKSLLKNENTRNDYSGEILNNCCVMEYHQATGTLSAHFRNMSLKRIKRSDRRGAESVTEEKFTILFESQFSVGGNELVFQVKTLSLPVVVIVHGSQDNNATATVLWDNAFAEPGRVPFAVPDKVLWPQLCEALNMKFKAEVQSNRGLTKENLVFLAQKLFNNSSSHLEDYSGLSVSWSQFNRENLPGRNYTFWQWFDGVMEVLKKHLKPHWNDGAILGFVNKQQAHDLLINKPDGTFLLRFSDSEIGGITIAWKFDSQERMFWNLMPFTTRDFSIRSLADRLGDLNYLIYVFPDRPKDEVYSKYYTPVPCESATAKAVDGYVKPQ
notes: human STAT5B core fragment A136-Q703 (printed once as S136-Q703), unphosphorylated; Two molecules per asymmetric unit; described as the unphosphorylated dimer; also called unphosphorylated STAT core fragment; source: E. coli BL21 (DE3) RILP, purified (Ni-NTA, Ulp1 cleavage, SEC); not shown: His, N-terminal, cleaved; SUMO, N-terminal, cleaved
B3: STAT5B^N642H core fragment (A136-Q703) (domain or fragment, human, UniProt P51692 136-703, looked up)
chain: B2 chain with N507H
notes: human STAT5B core fragment A136-Q703 with the patient-derived mutation N642H; Two molecules per asymmetric unit; described as the unphosphorylated dimer; source: E. coli BL21 (DE3) RILP, purified (Ni-NTA, Ulp1 cleavage, SEC); not shown: His, N-terminal, cleaved; SUMO, N-terminal, cleaved

Legend:
[1] = biological target: the molecule itself; test: dynamic light scattering; 50 µM protein in 20 mM HEPES pH 7.4, 150 mM NaCl, 2% glycerol; unphosphorylated protein, self-association
[2] = biological target: the molecule itself; test: crystal structure; unphosphorylated core fragment A136-Q703; two molecules per asymmetric unit; STAT5B 3.29 Å, STAT5B^N642H 3.21 Å

| Protein | stoichiometry N [1] | binding result [2] |
| --- | --- | --- |
| B1 | 2 | – |
| B2 | – | binds |
| B3 | – | binds |

Source: paper PMC6555848, “Structural and functional consequences of the STAT5B^N642H driver mutation” (Nature Communications, 2019)
